Experimental data published in PMC4254552 (Developmental cell, 2014).

T1: HIM-3-6His (C. elegans, UniProt G5EBG0 1-291)
T1 sequence (looked up): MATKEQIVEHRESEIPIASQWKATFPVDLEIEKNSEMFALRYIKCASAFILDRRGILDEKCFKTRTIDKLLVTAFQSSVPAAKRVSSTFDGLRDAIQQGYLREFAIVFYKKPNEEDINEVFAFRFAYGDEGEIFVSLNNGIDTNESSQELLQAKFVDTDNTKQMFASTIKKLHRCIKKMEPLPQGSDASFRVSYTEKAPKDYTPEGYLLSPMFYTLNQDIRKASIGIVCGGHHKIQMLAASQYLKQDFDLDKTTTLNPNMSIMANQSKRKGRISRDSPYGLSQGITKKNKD

T2: HIM-3 part of the chimeric protein HIM-3:HTP-3 motif #4 (C. elegans, UniProt G5EBG0 1-276)
T2 sequence (looked up): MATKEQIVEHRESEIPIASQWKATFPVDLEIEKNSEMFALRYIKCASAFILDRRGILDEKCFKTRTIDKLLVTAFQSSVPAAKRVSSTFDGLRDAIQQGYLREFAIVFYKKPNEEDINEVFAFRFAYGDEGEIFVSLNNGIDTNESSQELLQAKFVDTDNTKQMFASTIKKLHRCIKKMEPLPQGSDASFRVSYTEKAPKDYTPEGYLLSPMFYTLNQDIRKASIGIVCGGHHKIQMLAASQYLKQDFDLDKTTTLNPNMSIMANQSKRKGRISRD


Experiments:
[1] = molecular target: T1, HIM-3-6His
[2] = molecular target: T2, HIM-3 part of the chimeric protein …; assay: crystal structure

stoichiometry N [1]	binding result [2]	Binder
1 HTP-1 per HIM-3	–	HTP-1 (untagged, co-expressed) (natural protein, C. elegans, UniProt Q20305 1-352, looked up) MAPLETIYDESLNKSADSIDDKKWSKLFPRIVSDPDRSSNFMTRAIYVAFSAVLRNRNILGQEYFTKNYITEKLKCMTLCFRNPRSNQIAQLLRNAGDATKDGFLKEVSLVITNNEGDLEAIEVFSMKFIYFENGGVVARLSTDKNGQEDPHFAKLAQLVYEGGDSVRDQMVTIVRSVQFLCTKVLEPLPEEFTANFRLEYTNDAPSNFRIDGFEDSSTFYTLPDDIQSATIGHLRPGCHAANMECWSMLMSDSYEAELTLKRHLDKVSDRHGFNPVNVLYKSFNSEDSDTSLSQATTESVNDQGGNETSPVDDITESLEKAQMSPIQTRPTTRRGADGSKTRSSPYSRSCK
–	binds	RHYGRVSSILDVAGS (peptide, UniProt O01820 649-663, looked up) [HTP-3 motif #4 (residues 649-663) as placed in the HIM-3 chimera]
1 HTP-2 per HIM-3	–	HTP-2 (co-expressed; tag not told) (natural protein, C. elegans, UniProt Q95XC8 1-352, looked up) MAPLENNYNESLNKSKDAIDDKTWSKLFPSIVSDPDRSSNFMIRAIYVVFSAVLRQRNILEKEYFSKNYITENLSCMTLSFKNLRAHQIAQLLRAAGDATKDGFLKEISLVVTEHDGDVEAIEVFSMKFIYFENGGVVARLSTDNNDQEDPHFAELAQLRYEGAESVRDQMVTIVRSVQFLCTKVLEPLPAEFTANFRLKYTNDAPSNFRIDGFDDSSTFYTLPDGIQSVTIGHLRPGHHAAHMQCWSKSMSDSYAAELTLKGHLDKVSDMYAFNPVNVLYKSFNSEDTDPGLSQDTTESANDQGGNVTSPVDNITDSLEKTQMSPIKMRPTTRRGADDSKTRSSPYSRSRK
